Values quoted from earlier work, collected in PMC7194015, “Proline-Rich Antimicrobial Peptides in Medicinal Maggots of Lucilia sericata Interact With Bacterial DnaK But Do Not Inhibit Protein Synthesis” (Frontiers in Pharmacology, 2020).

Biological target: DnaK (Escherichia coli) (UniProt P0A6Y8)
Sequence (P0A6Y8 2-638): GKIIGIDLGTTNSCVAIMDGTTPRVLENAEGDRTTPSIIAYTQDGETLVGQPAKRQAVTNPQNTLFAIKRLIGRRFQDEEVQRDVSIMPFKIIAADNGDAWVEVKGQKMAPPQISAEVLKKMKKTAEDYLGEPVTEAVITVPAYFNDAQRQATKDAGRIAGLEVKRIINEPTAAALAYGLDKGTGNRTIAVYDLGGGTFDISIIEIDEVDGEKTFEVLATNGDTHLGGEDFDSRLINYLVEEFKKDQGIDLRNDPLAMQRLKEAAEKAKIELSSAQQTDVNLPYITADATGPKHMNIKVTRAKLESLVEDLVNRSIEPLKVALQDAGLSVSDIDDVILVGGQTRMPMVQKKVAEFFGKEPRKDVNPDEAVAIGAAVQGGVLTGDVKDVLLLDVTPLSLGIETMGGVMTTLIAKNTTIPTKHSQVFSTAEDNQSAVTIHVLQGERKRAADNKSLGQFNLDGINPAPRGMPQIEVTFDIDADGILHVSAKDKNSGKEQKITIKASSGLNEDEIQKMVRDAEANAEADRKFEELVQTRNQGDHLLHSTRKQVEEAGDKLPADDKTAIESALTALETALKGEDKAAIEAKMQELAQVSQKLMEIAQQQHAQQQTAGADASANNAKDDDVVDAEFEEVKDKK

Sequence of abaecin (P81463 whole entry): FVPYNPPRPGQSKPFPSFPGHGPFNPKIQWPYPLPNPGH

Substance: abaecin (from UniProt P81463)
- Kd: 100 nM
